Reference: US20210070886

Key:
[1] = target: fluorescein labeled bovine serum albumin (BSA), free in solution (UniProt P02769)
[2] = target: fluorescein-modified BSA encapsulated in octahedra-shaped DNA origami (OCs) (UniProt P02769)
Chain of fluorescein-modified BSA encapsulated in octahedra-shaped DNA origami (OCs) (P02769 25-607): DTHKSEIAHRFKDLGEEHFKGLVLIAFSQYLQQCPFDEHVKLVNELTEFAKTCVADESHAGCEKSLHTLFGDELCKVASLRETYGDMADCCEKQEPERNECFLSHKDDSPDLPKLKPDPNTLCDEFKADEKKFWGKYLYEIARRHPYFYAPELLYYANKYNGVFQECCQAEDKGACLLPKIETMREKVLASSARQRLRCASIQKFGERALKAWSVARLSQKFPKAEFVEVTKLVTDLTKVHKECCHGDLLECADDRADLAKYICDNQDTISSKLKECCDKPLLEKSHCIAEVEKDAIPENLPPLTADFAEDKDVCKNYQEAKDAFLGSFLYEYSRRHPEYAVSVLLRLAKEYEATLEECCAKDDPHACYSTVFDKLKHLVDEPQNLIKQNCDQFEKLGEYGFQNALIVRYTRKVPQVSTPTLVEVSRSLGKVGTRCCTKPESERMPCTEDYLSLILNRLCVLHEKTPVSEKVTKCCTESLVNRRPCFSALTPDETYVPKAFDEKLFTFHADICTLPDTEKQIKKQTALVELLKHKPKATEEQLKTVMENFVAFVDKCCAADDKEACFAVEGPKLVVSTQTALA

Chain of trypsin (P00760 24-246): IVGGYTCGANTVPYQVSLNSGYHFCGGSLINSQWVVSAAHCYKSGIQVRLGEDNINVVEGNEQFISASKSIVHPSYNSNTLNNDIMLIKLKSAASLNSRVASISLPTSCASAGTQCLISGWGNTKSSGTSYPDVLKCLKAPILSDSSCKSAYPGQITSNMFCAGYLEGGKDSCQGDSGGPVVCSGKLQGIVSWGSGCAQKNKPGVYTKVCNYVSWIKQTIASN
Chain of fluorescein labeled bovine serum albumin (BSA), free in solution (P02769 25-607): as the sequence (P02769 25-607) above

Substance: trypsin
- fluorescence enhancement of fluorescein labeled BSA in solution on tryptic digestion [1]: an 85% increase in the fluorescence intensity
- fluorescence enhancement on tryptic digestion, BSA encapsulated inside PE2-coated OCs [2]: further reduced to ˜14% by PE2 coating on the OC surface
- fluorescence enhancement on tryptic digestion, BSA encapsulated inside bare OCs [2]: reduced to ˜40% by protein encapsulation inside the OCs
